According to patent US7227009B2, “MT-SP1 polynucleotides and polypeptides” (Catalyst Biosciences, Inc., priority 1999, dated 2007):
Like-named read-outs stand apart in the source and are kept apart here.

Key:
[1] = target: T1, His-MT-SP1 protease domain (Homo sapiens, UniProt Q9Y5Y6); assay: Substrate kinetics of purified His-MT-SP1 protease domain; type: biochemical
T1 construct: made in house; host or cells: E. coli X-90 (pQE30 vector)
Protocol: The purified serine protease domain was titrated with 4-methylumbelliferyl p-guanidinobenzoate (MUGB) to obtain an accurate concentration of enzyme active sites^(iii). Enzyme activity was monitored at 25° C. in assay buffer containing 50 mM Tris pH 8.8, 50 mM NaCl, and 0.01% Tween 20. The final concentration of substrate Spectrozyme tPA ranged from 1 μM–400 μM. Enzyme concentrations ranged from 40 pM–800 pM. Active site titrations were performed on a Fluoromax-2 spectrofluorimeter. Measurements were plotted using the KaleidaGraph program (Synergy, Reading, Pa.), and the Km, kcat, and kcat/Km for Spectrozyme tPA was determined using the Michaelis-Menten equation.

explanted rat VP = assay: Rodent ventral prostate (VP) explant culture; type: cell-based; details: for ductal branching morphogenesis and differentiation of rat ventral prostate: explant culture, testosterone-induced
Excerpt: One useful model system for studying many issues that are pertinent to prostate cancer is the development of the rodent ventral prostate (VP) in explant cultures. Macromolecular inhibitors of serine proteases of the chymotrypsin fold, ecotin and ecotin M84R/M85R (see copending application Ser. Nos. 09/290,513 and 09/289,830, both filed on Apr. 12, 1999), inhibit ductal branching morphogenesis and differentiation of the explanted rat VP. […] Thus unidentified serine proteases may play a role in growth and prevention of apoptosis in prostate epithelial cells in this system.

PC-3 primary tumor = assay: PC-3 implanted nude mice, inhibitor treatment; type: in vivo; details: treated seven weeks, compared to PBS-treated mice after four weeks
Excerpt: Another well characterized model that is derived from human prostate cancer epithelial cells is the PC-3 cell line (Kaighn et al. (1979) Invest. Urology 17: 16–23). The PC-3 cell line expresses uPA as assayed by enzyme-linked immunosorbent assay (ELISA) and by Northern blotting of PC-3 mRNA (Yoshida et al. (1994) Cancer Res. 54: 3300–3304). […] Metastasis from the primary tumors similarly were similarly lower in the inhibitor-treated mice compared to PBS treated mice. Inhibition was not unexpected with ecotin M84R/M85R treatment, since uPA has been implicated in metastasis. […] Thus identification of the serine proteases expressed by PC-3 prostate cells may provide insight into the role of these proteases in cancer and prostate growth and development. In this example we have extended the strategy of using the polymerase chain reaction (PCR) with degenerate oligonucleotide primers that were designed using conserved sequence homology (Sakanari et al. (1989) Proc. Natl. Acad. Sci. USA 86: 4863–4867; Wiegand et al. (1993) Gene 136: 167–175, Kang et al. (1992) Gene 110: 181–187) to identify additional serine proteases made by cancer cells. […]

[2] = target: T2, His-tagged MT-SP1 serine protease domain (Homo sapiens, UniProt Q9Y5Y6); assay: Inhibition of MT-SP1 protease domain with ecotin and ecotin M84R/M85R; type: biochemical
T2 construct: made in house; host or cells: E. coli X-90 (pQE30 vector)
T2 sequence (Q9Y5Y6 615-855 limits assumed, other chains not shown): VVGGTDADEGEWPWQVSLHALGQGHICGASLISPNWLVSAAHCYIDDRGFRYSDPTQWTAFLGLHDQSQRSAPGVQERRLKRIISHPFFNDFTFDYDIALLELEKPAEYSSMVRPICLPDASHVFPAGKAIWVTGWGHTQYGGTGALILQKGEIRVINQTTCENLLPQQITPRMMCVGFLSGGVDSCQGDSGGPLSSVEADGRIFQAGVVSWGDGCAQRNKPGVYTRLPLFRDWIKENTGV
Protocol: Ecotin and ecotin M84R/M85R were purified from E. coli as described in copending application Ser. Nos. 09/290,513 and 09/289,830, both filed on Apr. 12, 1999. Various concentrations of ecotin or ecotin M84R/M85R were incubated with the His-tagged serine protease domain in a total volume of 990 μL of buffer containing 50 mM NaCl, 50 mM Tris-HCl (pH 8.8), 0.01% Tween 20. 10 μL of Spectrozyme tPA was added, yielding a solution containing 100 μM substrate. The final enzyme concentration was 63 pM, and the ecotin and ecotin M84R/M85R concentration ranged from 0.1 nM to 50 nM. The data were fit to the equation derived for kinetics of reversible tight-binding inhibitors (Morrison (1969) Biochim. Biophys. Acta 185: 269–286, Williams and Morrison (1979) Methods. Enzymol. 63: 437–467), and the values for apparent Ki were determined.

tumor = assay: Ecotin injected intraperitoneally, tumor growth; type: in vivo
PC-3 cells = assay: Subcutaneous coinjection of PC-3 cells with inhibitor; type: in vivo; details: subcutaneous coinjection with PC-3 cells, compared to PC-3 cells and saline
uPA [3] = target: T3, uPA (Homo sapiens, UniProt P00749); details: cited from earlier work
uPA [4] = target: T3, uPA; assay: Inhibition of uPA; type: biochemical

T1 sequence (Q9Y5Y6 615-855 limits assumed, other chains not shown): as above

## hexahydrotyrosyl-Gly-Arg-pNA [Spectrozyme tPA]
[1]
  kcat: 260 s⁻¹
[1]; 25° C., 50 mM Tris pH 8.8, 50 mM NaCl, 0.01% Tween 20
  Km: 31.4 ± 4.2 µM
[1]; 25° C., pH 8.8
  kcat: 2.6×10^2±6.5 s^−1

## ecotin: Macromolecular inhibitor of serine proteases of the chymotrypsin fold, purified from E. coli
Explanted rat VP
  apoptosis in rat ventral prostate model: enhances
  ductal branching morphogenesis and differentiation of rat ventral prostate: inhibits
PC-3 primary tumor
  primary tumor size: significantly smaller
[2]
  inhibition of MT-SP1, in words: potent, subnanomolar inhibitors
tumor
  tumor growth: inhibited
PC-3 cells
  primary tumor size: decrease
uPA [3]
  inhibition of uPA, in words: poor, micromolar inhibitor
  inhibitor potency against uPA: 2.8 µM

## NC(N)=NCCC[C@H](N)C(=O)Nc1ccc([N+](=O)[O-])cc1 [H-Arg-pNA, arginyl-pNA]
[1]
  hydrolysis of pNA substrate by the MT-SP1 protease domain: does not cleave

B1: ecotin M84R/M85R: Engineered version of ecotin, macromolecular inhibitor of chymotrypsin-fold serine proteases (protein)
chain: AESVQPLEKIAPYPQAEKGMKRQVIQLTPQEDESTLKVELLIGQTLEVDCNLHRLGGKLENKTLEGWGYDYYVFDKVSSPVSTRRACPDGKKEKKFVTAYLGDAGMLRYNSKLPIVVYTPDNVDVKYRVWKAEEKIDNAVVR
Explanted rat VP
  apoptosis in rat ventral prostate model: enhances
  ductal branching morphogenesis and differentiation of rat ventral prostate: inhibits
PC-3 primary tumor
  primary tumor size: significantly smaller
[2]
  inhibition of MT-SP1, in words: potent, subnanomolar inhibitors
uPA [4]
  fold more potent inhibitor of uPA compared to ecotin: 2800 fold
PC-3 cells
  primary tumor size: decrease
uPA [3]
  inhibitor potency against uPA: 0.001 µM
